In this series the target is Polα-primase, recombinant (Insect PP) (Homo sapiens, UniProt P09884;Q14181;P49642;P49643 1-1462;1-598;1-420;1-509). Put plainly: EMSA; Kd,app similar to CST-Polα-primase, value only in figure; complex dissociates during electrophoresis; CST EMSA: 20 mM HEPES-NaOH pH 8.0, 150 mM NaCl, 2 mM MgCl2, 0.2 mM EGTA, 0.1% NP-40, 10% glycerol, 1 mM DTT, 2 h on ice, 0.7% agarose 1x TBE gel at 4 °C; POT1-TPP1N EMSA: C-strand synthesis buffer, 30 min at 30 °C. To be noted: protein: recombinant; copies: 1;1;1;1; label: 5'-32P; folds into G-quadruplex in KCl and NaCl, not LiCl. (In general: In EMSA bound probe runs differently from free probe, usually more slowly.)
Sequence of Polα-primase, recombinant (Insect PP) (P09884 whole entry, chain 1 of 4): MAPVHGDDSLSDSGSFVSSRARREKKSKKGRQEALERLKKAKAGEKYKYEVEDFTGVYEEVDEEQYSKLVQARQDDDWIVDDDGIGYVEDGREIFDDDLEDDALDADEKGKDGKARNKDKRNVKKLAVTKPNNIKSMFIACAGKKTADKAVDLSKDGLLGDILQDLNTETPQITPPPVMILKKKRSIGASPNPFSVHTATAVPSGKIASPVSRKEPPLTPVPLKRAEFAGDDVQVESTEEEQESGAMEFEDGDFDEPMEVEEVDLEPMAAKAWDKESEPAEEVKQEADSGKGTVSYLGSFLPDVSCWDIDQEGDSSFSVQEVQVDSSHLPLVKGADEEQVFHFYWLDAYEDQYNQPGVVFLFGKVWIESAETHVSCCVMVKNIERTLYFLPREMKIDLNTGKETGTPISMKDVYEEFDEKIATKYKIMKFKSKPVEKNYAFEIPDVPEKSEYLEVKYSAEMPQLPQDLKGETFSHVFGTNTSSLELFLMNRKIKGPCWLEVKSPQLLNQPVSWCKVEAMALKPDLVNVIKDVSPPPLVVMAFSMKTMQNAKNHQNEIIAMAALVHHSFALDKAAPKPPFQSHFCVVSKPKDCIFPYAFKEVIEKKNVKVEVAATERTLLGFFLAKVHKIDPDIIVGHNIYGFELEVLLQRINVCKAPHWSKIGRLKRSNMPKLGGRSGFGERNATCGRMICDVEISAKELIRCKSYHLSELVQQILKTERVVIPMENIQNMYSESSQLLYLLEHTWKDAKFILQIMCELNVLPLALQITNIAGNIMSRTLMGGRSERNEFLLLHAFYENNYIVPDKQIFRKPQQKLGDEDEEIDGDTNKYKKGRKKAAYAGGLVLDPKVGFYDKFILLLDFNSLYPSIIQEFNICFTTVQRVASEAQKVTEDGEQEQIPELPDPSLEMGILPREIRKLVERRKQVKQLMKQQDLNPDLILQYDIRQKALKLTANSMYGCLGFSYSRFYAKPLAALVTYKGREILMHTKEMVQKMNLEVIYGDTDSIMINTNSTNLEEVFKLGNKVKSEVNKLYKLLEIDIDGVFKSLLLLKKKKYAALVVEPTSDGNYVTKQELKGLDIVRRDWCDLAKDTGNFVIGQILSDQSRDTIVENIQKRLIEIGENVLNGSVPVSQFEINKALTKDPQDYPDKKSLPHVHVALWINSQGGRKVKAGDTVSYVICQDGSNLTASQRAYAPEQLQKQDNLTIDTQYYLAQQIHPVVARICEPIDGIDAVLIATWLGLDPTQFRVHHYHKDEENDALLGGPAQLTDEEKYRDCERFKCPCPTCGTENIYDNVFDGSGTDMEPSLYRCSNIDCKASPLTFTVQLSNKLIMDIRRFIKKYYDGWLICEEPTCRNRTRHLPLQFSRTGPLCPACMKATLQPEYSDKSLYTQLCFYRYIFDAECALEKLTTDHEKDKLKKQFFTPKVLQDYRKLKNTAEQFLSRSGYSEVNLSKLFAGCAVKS
Sequence of Polα-primase, recombinant (Insect PP) (Q14181 whole entry, chain 2 of 4): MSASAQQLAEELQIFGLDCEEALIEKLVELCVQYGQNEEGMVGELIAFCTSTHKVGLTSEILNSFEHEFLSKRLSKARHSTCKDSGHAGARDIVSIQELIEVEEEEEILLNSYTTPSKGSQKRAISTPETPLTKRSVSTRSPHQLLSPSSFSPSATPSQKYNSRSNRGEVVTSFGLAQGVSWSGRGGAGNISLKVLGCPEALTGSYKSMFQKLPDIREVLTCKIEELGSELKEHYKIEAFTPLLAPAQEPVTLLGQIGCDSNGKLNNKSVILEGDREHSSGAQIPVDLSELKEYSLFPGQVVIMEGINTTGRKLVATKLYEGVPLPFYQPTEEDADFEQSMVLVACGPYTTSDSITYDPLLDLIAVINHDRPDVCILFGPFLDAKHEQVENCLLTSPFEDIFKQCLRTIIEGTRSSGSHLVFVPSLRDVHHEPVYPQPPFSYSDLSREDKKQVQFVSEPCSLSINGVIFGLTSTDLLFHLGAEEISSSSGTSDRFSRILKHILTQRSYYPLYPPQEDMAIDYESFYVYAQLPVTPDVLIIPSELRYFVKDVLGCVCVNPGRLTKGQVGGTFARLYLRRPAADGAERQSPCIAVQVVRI
Sequence of Polα-primase, recombinant (Insect PP) (P49642 whole entry, chain 3 of 4): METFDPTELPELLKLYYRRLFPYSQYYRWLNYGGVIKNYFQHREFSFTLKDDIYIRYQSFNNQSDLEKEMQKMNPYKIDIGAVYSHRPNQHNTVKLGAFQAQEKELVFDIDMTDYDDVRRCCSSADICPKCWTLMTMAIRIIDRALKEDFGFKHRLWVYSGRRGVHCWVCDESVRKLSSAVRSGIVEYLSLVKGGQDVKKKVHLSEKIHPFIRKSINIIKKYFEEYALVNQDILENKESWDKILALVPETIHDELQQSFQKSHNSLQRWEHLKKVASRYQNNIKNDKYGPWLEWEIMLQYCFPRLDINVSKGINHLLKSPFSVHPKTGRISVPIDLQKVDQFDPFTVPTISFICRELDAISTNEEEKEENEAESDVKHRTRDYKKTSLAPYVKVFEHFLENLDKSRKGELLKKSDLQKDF
Sequence of Polα-primase, recombinant (Insect PP) (P49643 whole entry, chain 4 of 4): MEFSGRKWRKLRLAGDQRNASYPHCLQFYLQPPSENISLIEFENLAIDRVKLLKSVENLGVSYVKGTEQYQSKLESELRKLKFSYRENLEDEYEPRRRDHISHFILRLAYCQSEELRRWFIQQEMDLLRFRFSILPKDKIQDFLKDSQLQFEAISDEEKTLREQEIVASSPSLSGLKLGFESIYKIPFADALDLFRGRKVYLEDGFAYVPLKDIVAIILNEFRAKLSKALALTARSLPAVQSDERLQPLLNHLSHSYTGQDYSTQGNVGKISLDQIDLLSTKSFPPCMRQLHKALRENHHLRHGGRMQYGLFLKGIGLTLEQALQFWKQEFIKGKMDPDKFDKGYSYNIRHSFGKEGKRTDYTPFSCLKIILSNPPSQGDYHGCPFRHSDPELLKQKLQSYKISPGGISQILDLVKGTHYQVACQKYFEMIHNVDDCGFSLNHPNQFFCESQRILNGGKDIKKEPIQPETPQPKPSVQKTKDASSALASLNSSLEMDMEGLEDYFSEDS

B1: 9xTEL (ssDNA)
DNA: TTAGGGTTAGGGTTAGGGTTAGGGTTAGGGTTAGGGTTAGGGTTAGGGTTAGGG
As for B1, the binding result is recorded as “binds”.

The values are drawn from article PMC9402439, “Reconstitution of a telomeric replicon organized by CST”.
